{"source": "paper PMC8072242", "about": "(Proceedings of the National Academy of Sciences of the …, 2021)", "molecules": {"B1": {"name": "CFP-29 (29 kDa culture filtrate protein), encapsulin shell protein of Mycobacterium smegmatis (natural protein)", "chain": "MNNLYRDLAPITESAWAEIELEATRTFKRHIAGRRVVDVSGPNGPTTASVSTGHLLDVSPPGDGVIAHLRDAKPLVRLRVPFTVARRDIDDVERGSQDSDWDPVKDAAKKLAFVEDRAIFEGYAAASIEGIRSSSSNPALALPDDAREIPDVIAQALSELRLAGVDGPYSVLLSAETYTKVSETTAHGYPIREHINRLVDGEIIWAPAIDGAFVLSTRGGDFDLQLGTDVSIGYLSHDAEVVHLYMEETMTFLCYTAEASVALTP"}, "B2": {"name": "DyP (dye-decolorizing peroxidase), native cargo of the Mycobacterium smegmatis encapsulin (enzyme)", "chain": "MPAPQPQPVLAPLTPAAVFLVATIDEGQEATVYDALPDISGLVRAIGFRDPAKRLSAITSIGSDAWDRLFSGPRPAELHPFREIDGGRHHAPATPGDLLFHLRAESMDVCFELATKLVEAMSGAITIVDETHGFRFFDNRDLMGFVDGTENPDGNLAVVATQIGDEDPDFAGGCYVHVQKYLHDMASWNSLSVEEQERVIGRTKLDDIELDDDVKPANSHVALNVIEDEDGNELKIIRHNMPFGEIGKGEFGTYYIGYSRTPSVTERMLDNMFIGDPPGNTDRILDFSTAITGGLFFTPTVDFLDDPPPLPSEDDRAEPASAPSADPVHTDGSLGIGSLKGTR"}}, "key": {"[1]": {"biological_target": "T1, MsDyP (unencapsulated DyP) (Mycolicibacterium smegmatis, UniProt A0R4G9)", "T1 sequence (A0R4G9 1-343)": "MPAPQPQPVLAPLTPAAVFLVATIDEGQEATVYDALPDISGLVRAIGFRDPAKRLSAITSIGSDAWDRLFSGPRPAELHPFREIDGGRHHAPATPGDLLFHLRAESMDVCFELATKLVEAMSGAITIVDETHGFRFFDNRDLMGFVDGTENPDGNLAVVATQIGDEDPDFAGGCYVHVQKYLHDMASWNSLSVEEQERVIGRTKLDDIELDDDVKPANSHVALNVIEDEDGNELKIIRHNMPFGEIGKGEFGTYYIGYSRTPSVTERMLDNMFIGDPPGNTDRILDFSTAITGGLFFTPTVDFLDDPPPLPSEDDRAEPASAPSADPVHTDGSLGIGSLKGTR", "format": "biochemical"}, "[2]": {"biological_target": "the molecule itself", "test": "cryo-EM structure"}}, "data": [{"molecule": "Oc1cccc(O)c1O", "note": "[pyrogallol]", "values": [{"measurement": "peroxidase assay, oxidation monitored at 430 nm", "setting": "[1]", "value": "utilizing H2O2 as the electron acceptor and pyrogallol (Sigma P0381-25g) as an electron donor"}]}, {"molecule": "B1", "values": [{"measurement": "stoichiometry N", "setting": "[2]", "value": 60}]}, {"molecule": "B2", "values": [{"measurement": "stoichiometry N", "setting": "[2]", "value": 12}]}]}
